IntAct's records for PubMed 26922829

Target: crp_human CRP (UniProt P02741)
Sequence (P02741 whole entry): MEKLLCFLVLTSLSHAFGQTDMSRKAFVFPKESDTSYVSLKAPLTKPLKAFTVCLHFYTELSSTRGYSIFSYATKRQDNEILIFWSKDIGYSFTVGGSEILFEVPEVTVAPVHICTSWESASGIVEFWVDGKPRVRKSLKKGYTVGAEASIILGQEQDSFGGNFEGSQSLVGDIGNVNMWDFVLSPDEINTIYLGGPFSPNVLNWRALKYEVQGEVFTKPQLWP

Substance	effect of a mutation on the interaction
Collectin-12 (Homo sapiens), Q5KU26 R448A;R451A;R454A;K466A;K469A;K472A;R496A;K499A;K502A	decreasing interaction strength
Collectin-12 (Homo sapiens), Q5KU26 R496A;K499A;K502A	disrupting interaction strength
Collectin-12 (Homo sapiens), Q5KU26 R448A;R451A;R454A	decreasing interaction strength
Collectin-12 (Homo sapiens), Q5KU26 K466A;K469A;K472A	with no effect
